T1: recombinant FLAG-huDLL3 (human DLL3 extracellular domain with FLAG tag at the N-terminus) (human, UniProt Q9NYJ7 27-492)
T1 construct: Bought (Adipogen, Cat AG40B-0151); the whole entry is named here; also called recombinant DLL3 protein; recombinant human FLAG-huDLL3; not shown: N-terminal FLAG tag
T1 sequence: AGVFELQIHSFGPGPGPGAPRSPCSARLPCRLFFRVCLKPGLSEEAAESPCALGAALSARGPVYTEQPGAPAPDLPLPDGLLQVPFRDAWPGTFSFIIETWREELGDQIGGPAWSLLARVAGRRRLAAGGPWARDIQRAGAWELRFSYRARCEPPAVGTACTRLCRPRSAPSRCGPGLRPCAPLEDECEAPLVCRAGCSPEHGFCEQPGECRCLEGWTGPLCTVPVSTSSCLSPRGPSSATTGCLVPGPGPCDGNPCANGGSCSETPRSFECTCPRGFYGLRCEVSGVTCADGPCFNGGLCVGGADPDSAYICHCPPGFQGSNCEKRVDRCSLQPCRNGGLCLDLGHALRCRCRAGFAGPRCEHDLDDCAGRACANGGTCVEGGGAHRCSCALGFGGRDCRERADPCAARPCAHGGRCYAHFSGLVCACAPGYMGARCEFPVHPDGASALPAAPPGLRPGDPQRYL


Each binder was assayed against T1, recombinant FLAG-huDLL3 (human DLL3 …) (assay: ELISA, FLAG-huDLL3 coated on plate).

| EC50 [nM] | Binder |
| --- | --- |
| 0.13 | humanized anti-DLL3 mAb H1L1 (antibody, V domains shown, Humanized 13P9A) VH: EVRLSQSGGQMKKPGESMRLSCRASGYTFTSYVMHWVRQAPGRRPEWIGYINPYNDATKYARKFQGRATLTSDKYSDTAFLELRSLTSDDTAVYYCARGGYDYDGDYWGRGAPVTVSS VL: EIVMTQSPGTLSLSPGERATLSCHASQNINVWLSWYQQKPGQAPRLLIYKASNLHTGIPDRFSGSGSGTDFTLTISRLEPEDFAVYYCQQGQSYPFTFGQGTKVEIK |
| 0.12 | humanized anti-DLL3 mAb H1L2 (antibody, V domains shown, also called anti-DLL3 parental mAb) VH: EVRLSQSGGQMKKPGESMRLSCRASGYTFTSYVMHWVRQAPGRRPEWIGYINPYNDATKYARKFQGRATLTSDKYSDTAFLELRSLTSDDTAVYYCARGGYDYDGDYWGRGAPVTVSS VL: EIVLTQSPGTLSLSPGERATLSCHASQNINVWLSWYQQKPGQAPRLLIYKASNLHTGIPDRFSGSGSGTDFTLTISRLEPEDFAVYYCQQGQSYPFTFGQGTKVEIK |
| 0.15 | humanized anti-DLL3 mAb H1L3 (antibody, V domains shown) VH: EVRLSQSGGQMKKPGESMRLSCRASGYTFTSYVMHWVRQAPGRRPEWIGYINPYNDATKYARKFQGRATLTSDKYSDTAFLELRSLTSDDTAVYYCARGGYDYDGDYWGRGAPVTVSS VL: EIVMTQSPATLSLSPGETAIISCHASQNINVWLSWYQQRPGQAPRLLIYKASNLHTGIPDRFSGSGWGTDFNLSISNLESGDFGVYYCQQGQSYPFTFGQGTKVEIK |

Each binder was assayed against T2, human CD47 extracellular domain (CD47(ECD)) (human, UniProt Q08722 19-139) (assay: ELISA, human CD47(ECD) coated on plate).
T2 construct: extracellular domain; Bought protein; also called human CD47(ECD); immobilized CD47
Method: The purified mAbs were analyzed for their ability to bind to the extracellular domain of CD47 (CD47(ECD)) in an ELISA assay as follows: human CD47(ECD) (AcroBio, Cat #: CD7-HA2E9-50 μg) in carbonate coating buffer (50 μL/well at 1 μg/mL) was coated on a 96-well ELISA plate for 1 hour at room temperature. After washing, the plate was blocked in 5% BSA in TBST for 1 hour at room temperature and washed again. In each well of the plate, an antibody at 50 μL/well at various concentrations was added and incubated for 1 hour at room temperature. The plate was washed and the binding of the antibody to the immobilized CD47 was detected by incubating with anti-human IgG conjugated to horseradish peroxidase (hIgG-HRP) (ThermoFisher Scientific, Cat #: H10007) for 60 minutes at room temperature. Then after washing, the ELISA was developed using One-step Detection Solution (ThermoFisher Scientific, Cat #: 34028) and measured as the absorbance at 450 nm.

T2 sequence (Q08722 19-139 limits assumed): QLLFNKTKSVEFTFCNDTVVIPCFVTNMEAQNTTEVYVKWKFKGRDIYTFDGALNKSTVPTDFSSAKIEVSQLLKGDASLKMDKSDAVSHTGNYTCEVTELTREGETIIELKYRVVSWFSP

| Binder | EC50 [nM] |
| --- | --- |
| humanized anti-CD47 mAb KH1L1 (antibody, V domains shown, Humanized VH of anti-CD47 mAb 17C6A with humanized VL of anti-DLL3 13P9A) VH: QVQLVQSGAEVKKPGSSVKVSCKASGYTFTSYWMHWVRQAPGQGLEWIGNIDPSDSETHYAQKFQGRATLTVDKSTSTAYMELSSLRSEDTAVYYCAGTDLAYWGQGTLVTVSS VL: EIVMTQSPGTLSLSPGERATLSCHASQNINVWLSWYQQKPGQAPRLLIYKASNLHTGIPDRFSGSGSGTDFTLTISRLEPEDFAVYYCQQGQSYPFTFGQGTKVEIK | 1.17 |
| humanized anti-CD47 mAb KH3L1 (antibody, V domains shown) VH: EVRLSQSGGQMKKPGESMRLSCRASGYTFTSYWMHWVRQAPGRRLEWIGNIDPSDSETHYARKFQGRATLTVDKYSDTAFLELRSLTSDDTAVYYCAGTDLAYWGRGAPVTVSS VL: EIVMTQSPGTLSLSPGERATLSCHASQNINVWLSWYQQKPGQAPRLLIYKASNLHTGIPDRFSGSGSGTDFTLTISRLEPEDFAVYYCQQGQSYPFTFGQGTKVEIK | 0.09 |
| humanized anti-CD47 mAb KH1L2 (antibody, V domains shown) VH: QVQLVQSGAEVKKPGSSVKVSCKASGYTFTSYWMHWVRQAPGQGLEWIGNIDPSDSETHYAQKFQGRATLTVDKSTSTAYMELSSLRSEDTAVYYCAGTDLAYWGQGTLVTVSS VL: EIVLTQSPGTLSLSPGERATLSCHASQNINVWLSWYQQKPGQAPRLLIYKASNLHTGIPDRFSGSGSGTDFTLTISRLEPEDFAVYYCQQGQSYPFTFGQGTKVEIK | 0.64 |

Other lines, results leading:

| EC50 [nM] | Binder |
| --- | --- |
| 0.76 | humanized anti-CD47 mAb KH1L3 (antibody, V domains shown) VH: QVQLVQSGAEVKKPGSSVKVSCKASGYTFTSYWMHWVRQAPGQGLEWIGNIDPSDSETHYAQKFQGRATLTVDKSTSTAYMELSSLRSEDTAVYYCAGTDLAYWGQGTLVTVSS VL: EIVMTQSPATLSLSPGETAIISCHASQNINVWLSWYQQRPGQAPRLLIYKASNLHTGIPDRFSGSGWGTDFNLSISNLESGDFGVYYCQQGQSYPFTFGQGTKVEIK |
| 0.18 | humanized anti-CD47 mAb KH2L2 (antibody, V domains shown, also called anti-CD47 parental mAb) VH: QVQLVQSGAEVKKPGASVKVSCKASGYTFTSYWMHWVRQAPGQGLEWIGNIDPSDSETHYAQKFQGRVTLTVDKSTSTVYMELSSLRSEDTAVYYCAGTDLAYWGQGTLVTVSS VL: EIVLTQSPGTLSLSPGERATLSCHASQNINVWLSWYQQKPGQAPRLLIYKASNLHTGIPDRFSGSGSGTDFTLTISRLEPEDFAVYYCQQGQSYPFTFGQGTKVEIK |
| 0.19 | humanized anti-CD47 mAb KH2L1 (antibody, V domains shown) VH: QVQLVQSGAEVKKPGASVKVSCKASGYTFTSYWMHWVRQAPGQGLEWIGNIDPSDSETHYAQKFQGRVTLTVDKSTSTVYMELSSLRSEDTAVYYCAGTDLAYWGQGTLVTVSS VL: EIVMTQSPGTLSLSPGERATLSCHASQNINVWLSWYQQKPGQAPRLLIYKASNLHTGIPDRFSGSGSGTDFTLTISRLEPEDFAVYYCQQGQSYPFTFGQGTKVEIK |
| 0.08 | humanized anti-CD47 mAb KH3L2 (antibody, V domains shown) VH: EVRLSQSGGQMKKPGESMRLSCRASGYTFTSYWMHWVRQAPGRRLEWIGNIDPSDSETHYARKFQGRATLTVDKYSDTAFLELRSLTSDDTAVYYCAGTDLAYWGRGAPVTVSS VL: EIVLTQSPGTLSLSPGERATLSCHASQNINVWLSWYQQKPGQAPRLLIYKASNLHTGIPDRFSGSGSGTDFTLTISRLEPEDFAVYYCQQGQSYPFTFGQGTKVEIK |
| 0.18 | humanized anti-CD47 mAb KH3L3 (antibody, V domains shown) VH: EVRLSQSGGQMKKPGESMRLSCRASGYTFTSYWMHWVRQAPGRRLEWIGNIDPSDSETHYARKFQGRATLTVDKYSDTAFLELRSLTSDDTAVYYCAGTDLAYWGRGAPVTVSS VL: EIVMTQSPATLSLSPGETAIISCHASQNINVWLSWYQQRPGQAPRLLIYKASNLHTGIPDRFSGSGWGTDFNLSISNLESGDFGVYYCQQGQSYPFTFGQGTKVEIK |
| 0.08 | humanized anti-CD47 mAb KH3L4 (antibody, V domains shown) VH: EVRLSQSGGQMKKPGESMRLSCRASGYTFTSYWMHWVRQAPGRRLEWIGNIDPSDSETHYARKFQGRATLTVDKYSDTAFLELRSLTSDDTAVYYCAGTDLAYWGRGAPVTVSS VL: EIVMTQSPATLSLSPGETAIISCHASQNINVWLSWYQQRPGQAPRLLIYKASNLHTGIPDRFSGSGWGTDFNLSISNLESGDFGVYYCQQGQSYPWTFGQGTKVEIK |
| 0.09 | humanized anti-CD47 mAb KH2L3 (antibody, V domains shown) VH: QVQLVQSGAEVKKPGASVKVSCKASGYTFTSYWMHWVRQAPGQGLEWIGNIDPSDSETHYAQKFQGRVTLTVDKSTSTVYMELSSLRSEDTAVYYCAGTDLAYWGQGTLVTVSS VL: EIVMTQSPATLSLSPGETAIISCHASQNINVWLSWYQQRPGQAPRLLIYKASNLHTGIPDRFSGSGWGTDFNLSISNLESGDFGVYYCQQGQSYPFTFGQGTKVEIK |

The binders below were run against T2, human CD47 extracellular domain … (assay: ELISA, CD47(ECD) coated on regular plate (FIG. 5)).

| binding result | Binder |
| --- | --- |
| binds | anti-CD47/DLL3 bispecific antibody BA1(C) (bispecific antibody, BA1 further modified by S354C on the anti-CD47 HC (KH2) and Y349C on the anti-DLL3 HC (H1); not shown: IgG1 heavy chain constant region, knob with added cysteine; IgG1 heavy chain constant region, hole with added cysteine; kappa light chain constant region) heavy 1: QVQLVQSGAEVKKPGASVKVSCKASGYTFTSYWMHWVRQAPGQGLEWIGNIDPSDSETHYAQKFQGRVTLTVDKSTSTVYMELSSLRSEDTAVYYCAGTDLAYWGQGTLVTVSS heavy 2: EVRLSQSGGQMKKPGESMRLSCRASGYTFTSYVMHWVRQAPGRRPEWIGYINPYNDATKYARKFQGRATLTSDKYSDTAFLELRSLTSDDTAVYYCARGGYDYDGDYWGRGAPVTVSS light: EIVLTQSPGTLSLSPGERATLSCHASQNINVWLSWYQQKPGQAPRLLIYKASNLHTGIPDRFSGSGSGTDFTLTISRLEPEDFAVYYCQQGQSYPFTFGQGTKVEIK |
| binds | anti-CD47/DLL3 bispecific antibody BA4(C) (bispecific antibody, Variable regions of BA1 on the IgG4 framework with the same cysteine mutations as BA1(C); not shown: IgG4 heavy chain constant region ("IgG4 frame work") with the same cysteine mutation as BA1(C); knob mutation not explic; hole mutations not expli; kappa light chain constant region) heavy 1: QVQLVQSGAEVKKPGASVKVSCKASGYTFTSYWMHWVRQAPGQGLEWIGNIDPSDSETHYAQKFQGRVTLTVDKSTSTVYMELSSLRSEDTAVYYCAGTDLAYWGQGTLVTVSS heavy 2: EVRLSQSGGQMKKPGESMRLSCRASGYTFTSYVMHWVRQAPGRRPEWIGYINPYNDATKYARKFQGRATLTSDKYSDTAFLELRSLTSDDTAVYYCARGGYDYDGDYWGRGAPVTVSS light: EIVLTQSPGTLSLSPGERATLSCHASQNINVWLSWYQQKPGQAPRLLIYKASNLHTGIPDRFSGSGSGTDFTLTISRLEPEDFAVYYCQQGQSYPFTFGQGTKVEIK |
| binds | anti-CD47/DLL3 bispecific antibody BA1 (KH2/H1/L2) (bispecific antibody, Common light chain L2; anti-CD47 arm KH2 (knob), anti-DLL3 arm H1 (hole); not shown: IgG1 heavy chain constant region, knob; IgG1 heavy chain constant region, hole; kappa light chain constant region) heavy 1: QVQLVQSGAEVKKPGASVKVSCKASGYTFTSYWMHWVRQAPGQGLEWIGNIDPSDSETHYAQKFQGRVTLTVDKSTSTVYMELSSLRSEDTAVYYCAGTDLAYWGQGTLVTVSS heavy 2: EVRLSQSGGQMKKPGESMRLSCRASGYTFTSYVMHWVRQAPGRRPEWIGYINPYNDATKYARKFQGRATLTSDKYSDTAFLELRSLTSDDTAVYYCARGGYDYDGDYWGRGAPVTVSS light: EIVLTQSPGTLSLSPGERATLSCHASQNINVWLSWYQQKPGQAPRLLIYKASNLHTGIPDRFSGSGSGTDFTLTISRLEPEDFAVYYCQQGQSYPFTFGQGTKVEIK |
